What all share (assay): pull-down
One test concerns the target T1, His6-Vps41 (S. cerevisiae, UniProt P38959 1-992).
T1 sequence: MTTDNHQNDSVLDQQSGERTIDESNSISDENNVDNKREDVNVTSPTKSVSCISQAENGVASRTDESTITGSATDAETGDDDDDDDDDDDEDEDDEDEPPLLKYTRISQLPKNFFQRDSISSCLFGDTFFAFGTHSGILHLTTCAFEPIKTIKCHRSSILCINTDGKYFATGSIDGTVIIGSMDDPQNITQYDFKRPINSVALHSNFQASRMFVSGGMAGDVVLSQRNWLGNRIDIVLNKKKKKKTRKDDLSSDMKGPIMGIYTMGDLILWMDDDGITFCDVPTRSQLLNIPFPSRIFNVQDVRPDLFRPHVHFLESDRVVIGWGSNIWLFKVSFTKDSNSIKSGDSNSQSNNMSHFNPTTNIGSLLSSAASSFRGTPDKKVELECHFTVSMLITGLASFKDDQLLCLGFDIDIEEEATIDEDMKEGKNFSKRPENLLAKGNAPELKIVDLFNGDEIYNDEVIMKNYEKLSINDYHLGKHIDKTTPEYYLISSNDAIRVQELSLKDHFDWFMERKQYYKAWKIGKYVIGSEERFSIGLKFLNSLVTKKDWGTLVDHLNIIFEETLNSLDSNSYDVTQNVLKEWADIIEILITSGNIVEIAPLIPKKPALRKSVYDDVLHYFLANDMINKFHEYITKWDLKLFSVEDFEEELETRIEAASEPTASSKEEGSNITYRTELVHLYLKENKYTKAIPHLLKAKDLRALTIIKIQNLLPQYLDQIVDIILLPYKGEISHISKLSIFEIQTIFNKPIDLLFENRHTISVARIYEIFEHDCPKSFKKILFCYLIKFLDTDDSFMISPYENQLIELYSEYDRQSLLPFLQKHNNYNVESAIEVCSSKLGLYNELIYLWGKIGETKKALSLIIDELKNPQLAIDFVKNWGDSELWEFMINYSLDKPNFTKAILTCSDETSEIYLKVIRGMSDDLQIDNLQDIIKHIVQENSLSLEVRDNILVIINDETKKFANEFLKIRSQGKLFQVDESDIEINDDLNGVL

For another test, the target named is T2, His6-Vps39–860Δ (S. cerevisiae, UniProt Q07468 1-860).
T2 sequence: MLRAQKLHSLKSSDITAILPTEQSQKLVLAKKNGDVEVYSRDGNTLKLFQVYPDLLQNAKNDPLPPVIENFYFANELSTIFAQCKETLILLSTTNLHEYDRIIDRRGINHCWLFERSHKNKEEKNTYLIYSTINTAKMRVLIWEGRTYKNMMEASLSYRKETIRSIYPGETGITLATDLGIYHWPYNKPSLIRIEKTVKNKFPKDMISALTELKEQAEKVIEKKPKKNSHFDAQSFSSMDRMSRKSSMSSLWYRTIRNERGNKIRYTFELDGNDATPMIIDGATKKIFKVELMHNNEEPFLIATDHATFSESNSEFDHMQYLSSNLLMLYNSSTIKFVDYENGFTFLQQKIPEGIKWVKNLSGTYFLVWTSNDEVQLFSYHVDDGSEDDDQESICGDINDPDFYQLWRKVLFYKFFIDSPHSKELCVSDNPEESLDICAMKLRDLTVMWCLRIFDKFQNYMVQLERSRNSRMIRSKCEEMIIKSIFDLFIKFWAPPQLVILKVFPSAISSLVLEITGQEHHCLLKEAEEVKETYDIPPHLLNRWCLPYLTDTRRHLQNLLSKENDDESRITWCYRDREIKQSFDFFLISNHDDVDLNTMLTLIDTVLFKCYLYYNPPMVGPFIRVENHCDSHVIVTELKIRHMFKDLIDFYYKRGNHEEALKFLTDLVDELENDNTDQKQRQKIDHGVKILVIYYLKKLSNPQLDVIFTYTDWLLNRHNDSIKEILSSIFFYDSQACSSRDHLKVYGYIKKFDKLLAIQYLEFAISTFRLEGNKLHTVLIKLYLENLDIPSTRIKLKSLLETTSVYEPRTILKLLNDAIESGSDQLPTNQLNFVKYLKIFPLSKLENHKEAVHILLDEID

A further test concerns the target T3, His6-Vps3 (S. cerevisiae, UniProt P23643 1-1011).
T3 sequence: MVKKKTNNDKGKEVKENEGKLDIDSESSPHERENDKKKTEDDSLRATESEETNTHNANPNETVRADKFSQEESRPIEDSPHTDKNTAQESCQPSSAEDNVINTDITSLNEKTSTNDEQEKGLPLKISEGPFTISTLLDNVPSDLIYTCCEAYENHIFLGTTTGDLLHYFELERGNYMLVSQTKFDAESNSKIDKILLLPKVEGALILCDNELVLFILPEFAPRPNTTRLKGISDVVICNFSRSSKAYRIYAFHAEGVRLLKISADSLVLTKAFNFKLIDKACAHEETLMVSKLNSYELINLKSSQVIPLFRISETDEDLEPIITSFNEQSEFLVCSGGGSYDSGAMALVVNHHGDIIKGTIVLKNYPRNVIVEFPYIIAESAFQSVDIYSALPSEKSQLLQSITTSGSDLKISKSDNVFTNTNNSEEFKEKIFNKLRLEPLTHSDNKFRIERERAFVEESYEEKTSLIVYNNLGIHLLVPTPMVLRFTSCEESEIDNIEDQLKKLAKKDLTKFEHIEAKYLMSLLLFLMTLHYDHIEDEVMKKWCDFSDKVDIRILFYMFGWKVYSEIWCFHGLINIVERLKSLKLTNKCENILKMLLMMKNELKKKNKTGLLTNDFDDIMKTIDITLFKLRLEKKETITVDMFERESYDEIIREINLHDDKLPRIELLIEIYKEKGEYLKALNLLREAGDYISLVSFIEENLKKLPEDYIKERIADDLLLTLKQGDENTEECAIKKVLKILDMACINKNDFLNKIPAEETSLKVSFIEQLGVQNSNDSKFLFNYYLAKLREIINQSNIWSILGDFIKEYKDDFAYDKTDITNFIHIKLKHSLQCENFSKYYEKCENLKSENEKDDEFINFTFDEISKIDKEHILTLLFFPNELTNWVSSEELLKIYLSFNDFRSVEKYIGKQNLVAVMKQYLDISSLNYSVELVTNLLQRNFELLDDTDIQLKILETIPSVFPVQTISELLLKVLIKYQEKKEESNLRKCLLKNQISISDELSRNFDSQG

The text below walks through data of PMC3078060 (Molecular Biology of the Cell, 2011).

B1: GST-Ypt7 (natural protein)
chain: MSSRKKNILKVIILGDSGVGKTSLMHRYVNDKYSQQYKATIGADFLTKEVTVDGDKVATMQVWDTAGQERFQSLGVAFYRGADCCVLVYDVTNASSFENIKSWRDEFLVHANVNSPETFPFVILGNKIDAEESKKIVSEKSAQELAKSLGDIPLFLTSAKNAINVDTAFEEIARSALQQNQADTEAFEDDYNDAINIRLDGENNSCSC
For the molecule B1, the binding result in the test with His6-Vps41 and with His6-Vps39–860Δ was “binds” in each case.

B2: GST-Vps21 (natural protein)
chain: MNTSVTSIKLVLLGEAAVGKSSIVLRFVSNDFAENKEPTIGAAFLTQRVTINEHTVKFEIWDTAGQERFASLAPMYYRNAQAALVVYDVTKPQSFIKARHWVKELHEQASKDIIIALVGNKIDMLQEGGERKVAREEGEKLAEEKGLLFFETSAKTGENVNDVFLGIGEKIPLKTAEEQNSASNERESNNQRVDLNAANDGTSANSACSC
As to B2, in the test with His6-Vps3, the binding result is listed as “binds”.
